Results published in paper PMC4872098.

Experiments:
Rbfox RRM (109-208) [1] = biological target: T1, Rbfox RRM (109-208) (Homo sapiens, UniProt Q9NWB1 109-208); assay: NMR
T1 sequence: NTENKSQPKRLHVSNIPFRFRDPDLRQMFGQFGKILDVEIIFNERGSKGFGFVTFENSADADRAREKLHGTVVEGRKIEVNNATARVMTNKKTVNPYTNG

Rbfox1 RRM (109-225) = biological target: T2, Rbfox1 RRM (109-225) (Homo sapiens, UniProt Q9NWB1 109-225); assay: NMR
T2 sequence: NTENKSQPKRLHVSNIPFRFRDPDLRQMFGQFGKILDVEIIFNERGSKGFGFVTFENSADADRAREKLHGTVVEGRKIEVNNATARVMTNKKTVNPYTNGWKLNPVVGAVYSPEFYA

Rbfox RRM (109-208) [2] = biological target: T1, Rbfox RRM (109-208); assay: EMSA

B1: pre-miR-20b 46-nt (G7-C52) (structured_RNA)
RNA: GCUCAUAGUGCAGGUAGUUUUGGCAUGACUCUACUGUAGUAUGGGC
binding result (Rbfox RRM (109-208) [1]): binds

B2: pre-miR-20b 46-nt, 4-thio-U43 spin-labeled (structured_RNA)
RNA: B1 RNA
modifications: 4-thiouridine at U43 carrying spin label
binding result (Rbfox1 RRM (109-225)): binds

B3: pre-miR-20b full-length (structured_RNA)
RNA: AGUACCAAAGUGCUCAUAGUGCAGGUAGUUUUGGCAUGACUCUACUGUAGUAUGGGCACUUCCAGUACU
Kd (Rbfox RRM (109-208) [2]): ~50 nM
